Measured values taken from publication PMC11912406 (Proceedings of the National Academy of Sciences of the …, 2025).
Where two headings read alike, the source gives them in different places. Blank lines part the entries; values can stand above or below the molecule they belong to.

Key:
[1] = molecular target: recombinant murine IZUMO1-human Fc fusion protein (murine) (UniProt Q9D9J7); assay: BLI
[2] = molecular target: IZUMO1-Fc prebound to OBF13 (IgM) (murine) (UniProt Q9D9J7); assay: BLI
[3] = molecular target: IZUMO1-Fc prebound to OBF13^HAC (scFv) (murine) (UniProt Q9D9J7); assay: BLI
[4] = molecular target: cell-surface, GPI-anchored murine JUNO on HEK293F cells (murine) (UniProt Q9EQF4); assay: flow cytometry on cells
[5] = molecular target: cell-surface, GPI-anchored hamster JUNO on HEK293F cells (hamster); assay: flow cytometry on cells
[6] = molecular target: cell-surface, GPI-anchored hamster JUNO on HEK293F cells (hamster); assay: flow cytometry on cells; remark: listed apart in the source
[7] = molecular target: T1, cell-surface, GPI-anchored murine JUNO on HEK293F cells (murine, UniProt Q9EQF4 20-222); assay: flow cytometry on cells
T1 sequence: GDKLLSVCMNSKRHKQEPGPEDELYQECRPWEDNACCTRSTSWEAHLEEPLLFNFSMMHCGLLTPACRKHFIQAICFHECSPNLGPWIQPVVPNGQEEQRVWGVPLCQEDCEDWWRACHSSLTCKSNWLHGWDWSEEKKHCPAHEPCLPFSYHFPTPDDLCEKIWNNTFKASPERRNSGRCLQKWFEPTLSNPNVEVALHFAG

Kd [1]: 11000 nM
Kd [2]: 30100 nM
fold decrease in kon against IZUMO1 alone [2]: 3 fold
Kd [3]: 33800 nM
fold decrease in kon against IZUMO1 alone [3]: 3 fold
Molecule: murine JUNO ectodomain (domain or fragment)

EC50 [4]: 551 nM
EC50 [5]: 1.4 nM
Molecule: IZUMO1-Fc prebound to OBF13 (IgM) (from UniProt Q9D9J7 22-319) (complex)

Kd [1]: 659 nM
fold decrease in kon against IZUMO1 alone [2]: 2 fold
fold decrease in kon against IZUMO1 alone [3]: 2 fold
Molecule: hamster JUNO ectodomain (domain or fragment)

EC50 [6]: 0.198 nM
EC50 [7]: 10.7 nM
B1: recombinant murine IZUMO1-human Fc fusion protein (Fc fusion)
chain: CIKCDQFVTDALKTFENTYLNDHLPHDIHKNVMRMVNHEVSSFGVVTSAEDSYLGAVDENTLEQATWSFLKDLKRITDSDLKGELFIKELLWMLRHQKDIFNNLARQFQKEVLCPNKCGVMSQTLIWCLKCEKQLHICRKSLDCGERHIEVHRSEDLVLDCLLSWHRASKGLTDYSFYRVWENSSETLIAKGKEPYLTKSMVGPEDAGNYRCVLDTINQGHATVIRYDVTVLPPKHSEENQPPNIITQEEHETPVHVTPQTPPGQEPESELYPELHPELYPELIPTVAQNPEKKMKTR
